# In paper PMC12102759 (2025):
# B1: PIP5K1C peptide 642-657 (Phosphatidylinositol 4-phosphate 5-kinase type-1 gamma), 16-mer library wild type / TLN1 PTB (TLN1 Phosphotyrosine-binding (PTB) domain, residues 309-401) (parent complex)
# chain 1: TDERSWVYSPLHYSAQ
# chain 2: GVSFFLVKEKMKGKNKLVPRLLGITKECVMRVDEKTKEVIQEWNLTNIKRWAASPKSFTLDFGDYQDGYYSVQTTEGEQIAQLIAGYIDIILK
# Variants of: B1
# Experiment: proteomic peptide phage display deep mutational scan (ProP-PD DMS): M13 P8 16-mer library selected against immobilised GST-tagged bait for four days (rounds), NGS of the eluted pools per day and pseudo-replica; bait immobilised on MaxiSorp plates (10 µg), library pre-cleared on GST, 2 h binding at 4 °C, five washes; one round per day, days 1-4; value from days 2 and 3
row,Variant,screen value
1,chain 1 A15N,"0.000427 average fractional NGS count over selection days 2 and 3 (reads of this peptide / all reads for the bait, averaged over …"
2,chain 1 Y13P,"0.00124 average fractional NGS count over selection days 2 and 3 (reads of this peptide / all reads for the bait, averaged over …"
3,chain 1 T1M,"0.000328 average fractional NGS count over selection days 2 and 3 (reads of this peptide / all reads for the bait, averaged over …"
4,chain 1 T1A,"0.00341 average fractional NGS count over selection days 2 and 3 (reads of this peptide / all reads for the bait, averaged over …"
5,chain 1 S9M,"0.000276 average fractional NGS count over selection days 2 and 3 (reads of this peptide / all reads for the bait, averaged over …"
6,chain 1 A15E,"0.00381 average fractional NGS count over selection days 2 and 3 (reads of this peptide / all reads for the bait, averaged over …"
7,chain 1 S9H,"0.000148 average fractional NGS count over selection days 2 and 3 (reads of this peptide / all reads for the bait, averaged over …"
8,chain 1 V7S,"0.00114 average fractional NGS count over selection days 2 and 3 (reads of this peptide / all reads for the bait, averaged over …"
9,chain 1 P10I,"0.00026 average fractional NGS count over selection days 2 and 3 (reads of this peptide / all reads for the bait, averaged over …"
10,chain 1 D2T,"0.00067 average fractional NGS count over selection days 2 and 3 (reads of this peptide / all reads for the bait, averaged over …"
11,chain 1 A15R,"0.000696 average fractional NGS count over selection days 2 and 3 (reads of this peptide / all reads for the bait, averaged over …"
12,chain 1 S9T,"0.000558 average fractional NGS count over selection days 2 and 3 (reads of this peptide / all reads for the bait, averaged over …"
13,chain 1 R4E,"0.00181 average fractional NGS count over selection days 2 and 3 (reads of this peptide / all reads for the bait, averaged over …"
14,chain 1 V7R,"0.00391 average fractional NGS count over selection days 2 and 3 (reads of this peptide / all reads for the bait, averaged over …"
15,chain 1 H12S,"0.000155 average fractional NGS count over selection days 2 and 3 (reads of this peptide / all reads for the bait, averaged over …"
16,chain 1 Y8D,"0.00213 average fractional NGS count over selection days 2 and 3 (reads of this peptide / all reads for the bait, averaged over …"
17,chain 1 L11G,"0.000282 average fractional NGS count over selection days 2 and 3 (reads of this peptide / all reads for the bait, averaged over …"
18,chain 1 P10N,"0.00396 average fractional NGS count over selection days 2 and 3 (reads of this peptide / all reads for the bait, averaged over …"
19,chain 1 H12Y,"0.000256 average fractional NGS count over selection days 2 and 3 (reads of this peptide / all reads for the bait, averaged over …"
20,chain 1 Y8P,"0.000696 average fractional NGS count over selection days 2 and 3 (reads of this peptide / all reads for the bait, averaged over …"
21,chain 1 P10G,"0.00227 average fractional NGS count over selection days 2 and 3 (reads of this peptide / all reads for the bait, averaged over …"
22,chain 1 S14L,"0.00127 average fractional NGS count over selection days 2 and 3 (reads of this peptide / all reads for the bait, averaged over …"
23,chain 1 S5Y,"0.000589 average fractional NGS count over selection days 2 and 3 (reads of this peptide / all reads for the bait, averaged over …"
24,chain 1 H12I,"0.000636 average fractional NGS count over selection days 2 and 3 (reads of this peptide / all reads for the bait, averaged over …"
25,chain 1 R4L,"0.00628 average fractional NGS count over selection days 2 and 3 (reads of this peptide / all reads for the bait, averaged over …"

row,Variant,screen value
1,chain 1 R4K,"0.000222 average fractional NGS count over selection days 2 and 3 (reads of this peptide / all reads for the bait, averaged over …"
2,chain 1 Y13I,"0.00816 average fractional NGS count over selection days 2 and 3 (reads of this peptide / all reads for the bait, averaged over …"
3,chain 1 P10S,"0.00055 average fractional NGS count over selection days 2 and 3 (reads of this peptide / all reads for the bait, averaged over …"
4,chain 1 T1S,"0.00255 average fractional NGS count over selection days 2 and 3 (reads of this peptide / all reads for the bait, averaged over …"
5,chain 1 V7Q,"0.00122 average fractional NGS count over selection days 2 and 3 (reads of this peptide / all reads for the bait, averaged over …"
6,chain 1 S14I,"0.000211 average fractional NGS count over selection days 2 and 3 (reads of this peptide / all reads for the bait, averaged over …"
7,chain 1 S14P,"0.000401 average fractional NGS count over selection days 2 and 3 (reads of this peptide / all reads for the bait, averaged over …"
8,chain 1 R4T,"0.000696 average fractional NGS count over selection days 2 and 3 (reads of this peptide / all reads for the bait, averaged over …"
9,chain 1 D2P,"0.00102 average fractional NGS count over selection days 2 and 3 (reads of this peptide / all reads for the bait, averaged over …"
10,chain 1 H12L,"0.00133 average fractional NGS count over selection days 2 and 3 (reads of this peptide / all reads for the bait, averaged over …"
11,chain 1 T1Q,"0.00112 average fractional NGS count over selection days 2 and 3 (reads of this peptide / all reads for the bait, averaged over …"
12,chain 1 W6R,"0.000143 average fractional NGS count over selection days 2 and 3 (reads of this peptide / all reads for the bait, averaged over …"
13,chain 1 H12R,"0.000172 average fractional NGS count over selection days 2 and 3 (reads of this peptide / all reads for the bait, averaged over …"
14,chain 1 R4H,"0.00121 average fractional NGS count over selection days 2 and 3 (reads of this peptide / all reads for the bait, averaged over …"
15,chain 1 E3Q,"0.000394 average fractional NGS count over selection days 2 and 3 (reads of this peptide / all reads for the bait, averaged over …"
16,chain 1 Y13T,"0.000772 average fractional NGS count over selection days 2 and 3 (reads of this peptide / all reads for the bait, averaged over …"
17,chain 1 V7N,"0.0129 average fractional NGS count over selection days 2 and 3 (reads of this peptide / all reads for the bait, averaged over …"
18,chain 1 L11M,"0.000374 average fractional NGS count over selection days 2 and 3 (reads of this peptide / all reads for the bait, averaged over …"
19,chain 1 E3L,"0.00278 average fractional NGS count over selection days 2 and 3 (reads of this peptide / all reads for the bait, averaged over …"
20,chain 1 A15T,"0.00116 average fractional NGS count over selection days 2 and 3 (reads of this peptide / all reads for the bait, averaged over …"
21,chain 1 S14A,"0.00151 average fractional NGS count over selection days 2 and 3 (reads of this peptide / all reads for the bait, averaged over …"
22,chain 1 R4V,"0.00216 average fractional NGS count over selection days 2 and 3 (reads of this peptide / all reads for the bait, averaged over …"
23,chain 1 S14K,"0.000852 average fractional NGS count over selection days 2 and 3 (reads of this peptide / all reads for the bait, averaged over …"
24,chain 1 S9D,"7.45e-05 average fractional NGS count over selection days 2 and 3 (reads of this peptide / all reads for the bait, averaged over …"
25,chain 1 E3R,"0.000973 average fractional NGS count over selection days 2 and 3 (reads of this peptide / all reads for the bait, averaged over …"

row,Variant,screen value
1,chain 1 D2Q,"0.00198 average fractional NGS count over selection days 2 and 3 (reads of this peptide / all reads for the bait, averaged over …"
2,chain 1 A15H,"0.000752 average fractional NGS count over selection days 2 and 3 (reads of this peptide / all reads for the bait, averaged over …"
3,chain 1 P10V,"0.000485 average fractional NGS count over selection days 2 and 3 (reads of this peptide / all reads for the bait, averaged over …"
4,chain 1 Y13W,"0.000603 average fractional NGS count over selection days 2 and 3 (reads of this peptide / all reads for the bait, averaged over …"
5,chain 1 Y8R,"0.0156 average fractional NGS count over selection days 2 and 3 (reads of this peptide / all reads for the bait, averaged over …"
6,chain 1 S5V,"0.0006 average fractional NGS count over selection days 2 and 3 (reads of this peptide / all reads for the bait, averaged over …"
7,chain 1 T1Y,"0.000499 average fractional NGS count over selection days 2 and 3 (reads of this peptide / all reads for the bait, averaged over …"
8,chain 1 A15W,"0.00297 average fractional NGS count over selection days 2 and 3 (reads of this peptide / all reads for the bait, averaged over …"
9,chain 1 R4Q,"0.00324 average fractional NGS count over selection days 2 and 3 (reads of this peptide / all reads for the bait, averaged over …"
10,chain 1 R4F,"0.00144 average fractional NGS count over selection days 2 and 3 (reads of this peptide / all reads for the bait, averaged over …"
11,chain 1 S14D,"0.00662 average fractional NGS count over selection days 2 and 3 (reads of this peptide / all reads for the bait, averaged over …"
12,chain 1 Y13H,"0.000476 average fractional NGS count over selection days 2 and 3 (reads of this peptide / all reads for the bait, averaged over …"
13,chain 1 S9N,"0.0022 average fractional NGS count over selection days 2 and 3 (reads of this peptide / all reads for the bait, averaged over …"
14,chain 1 H12E,"0.00161 average fractional NGS count over selection days 2 and 3 (reads of this peptide / all reads for the bait, averaged over …"
15,chain 1 R4N,"0.00121 average fractional NGS count over selection days 2 and 3 (reads of this peptide / all reads for the bait, averaged over …"
16,chain 1 E3K,"0.00138 average fractional NGS count over selection days 2 and 3 (reads of this peptide / all reads for the bait, averaged over …"
17,chain 1 Y8F,"0.00543 average fractional NGS count over selection days 2 and 3 (reads of this peptide / all reads for the bait, averaged over …"
18,chain 1 D2N,"0.000972 average fractional NGS count over selection days 2 and 3 (reads of this peptide / all reads for the bait, averaged over …"
19,chain 1 S5F,"0.000252 average fractional NGS count over selection days 2 and 3 (reads of this peptide / all reads for the bait, averaged over …"
20,chain 1 L11W,"0.000722 average fractional NGS count over selection days 2 and 3 (reads of this peptide / all reads for the bait, averaged over …"
21,chain 1 T1R,"0.00306 average fractional NGS count over selection days 2 and 3 (reads of this peptide / all reads for the bait, averaged over …"
22,chain 1 S5A,"0.0049 average fractional NGS count over selection days 2 and 3 (reads of this peptide / all reads for the bait, averaged over …"
23,chain 1 S5W,"0.000786 average fractional NGS count over selection days 2 and 3 (reads of this peptide / all reads for the bait, averaged over …"
24,chain 1 A15L,"0.00142 average fractional NGS count over selection days 2 and 3 (reads of this peptide / all reads for the bait, averaged over …"
25,chain 1 S5M,"0.00508 average fractional NGS count over selection days 2 and 3 (reads of this peptide / all reads for the bait, averaged over …"
